Reference: US20170313746
Entries after “also recorded” stand apart in the source; their conditions may differ.

Key:
[1] = target: T1, HILR-030 (cyclo-[Pro-Arg-Gly-Pro-Arg-Pro-Val-Trp-Trp-Gpa-Gpa-Trp-Trp-Gpa-Gpa-Trp-Trp])
T1 chain: PRGPRPVWWXXWWXXXW

[2] = target: T2, Ac-DEVD-CHO
T2 chain: DEVD

B1: recombinant human caspase 3 enzyme (protein)
chain: SGISLDNSYKMDYPEMGLCIIINNKNFHKSTGMTSRSGTDVDAANLRETFRNLKYEVRNKNDLTREEIVELMRDVSKEDHSKRSSFVCVLLSHGEEGIIFGTNGPVDLKKITNFFRGDRCRSLTGKPKLFIIQACRGTELDCGIETDSGVDDDMACHKIPVEADFLYAYSTAPGYYSWRNSKDGSWFIQSLCAMLKQYADKLEFMHILTRVNRKVATEFESFSFDATFHAKKQIPCIVSMLTKELYFYH
[1]
  caspase-3 activity (Apo-ONE Homogeneous Caspase-3/7 assay, cleavage of Z-DEVD-R110): inhibited the caspase-3 activity in a dose-dependent fashion
[2]
  caspase-3 activity (Apo-ONE Homogeneous Caspase-3/7 assay, cleavage of Z-DEVD-R110): inhibited the activity of caspase-3 in a dose-dependent manner, giving rise to IC50s within the expected range; also recorded: inhibited the caspase-3 activity in a dose-dependent fashion
